B1: Biopolymer transport protein ExbD (Escherichia coli (strain K12)), P0ABV2 (parent)
chain: MAMHLNENLDDNGEMHDINVTPFIDVMLVLLIIFMVAAPLATVDVKVNLPASTSTPQPRPEKPVYLSVKADNSMFIGNDPVTDETMITALNALTEGKKDTTIFFRADKTVDYETLMKVMDTLHQAGYLKIGLVGEETAKAK
B2: Biopolymer transport protein ExbD (Escherichia coli (strain K12)), P0ABV2 (parent)
chain: B1 chain
partner: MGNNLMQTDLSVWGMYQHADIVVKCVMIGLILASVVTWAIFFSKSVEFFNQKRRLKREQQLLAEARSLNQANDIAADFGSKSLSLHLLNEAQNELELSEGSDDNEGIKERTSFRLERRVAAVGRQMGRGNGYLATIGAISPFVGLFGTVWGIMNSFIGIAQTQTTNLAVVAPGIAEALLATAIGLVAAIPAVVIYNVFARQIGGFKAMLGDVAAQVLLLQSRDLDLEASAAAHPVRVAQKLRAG

Variants of: B1
Conditions: with tonb_ecoli tonB

| effect of a mutation on the interaction | Variant |
| --- | --- |
| increasing interaction | MAMHLNENLDDNGEMHDINVTPFIDVMLVLLIIFMVAAPLATVDVKVNLPASTSTPQPRPEKPVYLSVKADNSMFIGNDPVTDETMITALNALTEGKKDTTIFFRACKTVDYETLMKVMDTLHQAGYLKIGLVGEETAKAK [D107C] |
| increasing interaction | MAMHLNENLDDNGEMHDINVTPFIDVMLVLLIIFMVAAPLATVDVKVNLPASTSTPQPRPEKPVYLSVKADNSMFIGNDPVTDETMITALNALTEGKKDTTCFFRADKTVDYETLMKVMDTLHQAGYLKIGLVGEETAKAK [I102C] |
| increasing interaction | MAMHLNENLDDNGEMHDINVTPFIDVMLVLLIIFMVAAPLATVDVKVNLPASTSTPQPRPEKPVYLSVKADNSMFIGNDPVTDETMITALNALTEGKKDTTIFFRADKTVCYETLMKVMDTLHQAGYLKIGLVGEETAKAK [D111C] |
| increasing interaction | MAMHLNENLDDNGEMHDINVTPFIDVMLVLLIIFMVAAPLATVDVKVNLPASTSTPQPRPEKPVYLSVKADNSMFIGNDPVTDETMITALNALTECKKDTTIFFRADKTVDYETLMKVMDTLHQAGYLKIGLVGEETAKAK [G96C] |
| increasing interaction | MAMHLNENLDDNGEMHDINVTPFIDVMLVLLIIFMVAAPLATVDVKVNLPASTSTPQPRPEKPVYLSVKADNSMFIGNDPVTDETMITALNALTEGKKDTTIFFRADKTVDYETLCKVMDTLHQAGYLKIGLVGEETAKAK [M116C] |
| increasing interaction | MAMHLNENLDDNGEMHDINVTPFIDVMLVLLIIFMVAAPLATVDVKVNLPASTSTPQPRPEKPVYLSVKADNSMFIGNDPVTDETMITALNALTEGKKDTTIFFRADKTCDYETLMKVMDTLHQAGYLKIGLVGEETAKAK [V110C] |
| increasing interaction | MAMHLNENLDDNGEMHDINVTPFIDVMLVLLIIFMVAAPLATVDVKVNLPASTSTPQPRPEKPVYLSVKADNSMFIGNDPVTDETMITALNALTEGKKDTTIFFRADKTVDYCTLMKVMDTLHQAGYLKIGLVGEETAKAK [E113C] |
| increasing interaction | MAMHLNENLDDNGEMHDINVTPFIDVMLVLLIIFMVAAPLATVDVKVNLPASTSTPQPRPEKPVYLSVKADNSMFIGNDPVTDETMITALNALTEGKKDTTIFFRADKTVDCETLMKVMDTLHQAGYLKIGLVGEETAKAK [Y112C] |
| increasing interaction | MAMHLNENLDDNGEMHDINVTPFIDVMLVLLIIFMVAAPLATVDVKVNLPASTSTPQPRPEKPVYLSVKADNSMFIGNDPVTDETMITALNCLTEGKKDTTIFFRADKTVDYETLMKVMDTLHQAGYLKIGLVGEETAKAK [A92C] |
| increasing interaction | MAMHLNENLDDNGEMHDINVTPFIDVMLVLLIIFMVAAPLATVDVKVNLPASTSTPQPRPEKPVYLSVKADNSMFIGNDPVTDETMITALNALTEGKKDTTIFFRADKTVDYETLMKVMCTLHQAGYLKIGLVGEETAKAK [D120C] |
| increasing interaction | MAMHLNENLDDNGEMHDINVTPFIDVMLVLLIIFMVAAPLATVDVKVNLPASTSTPQPRPEKPVYLSVKADNSMFIGNDPVTDETMITALNALTEGKKDTTIFFRADCTVDYETLMKVMDTLHQAGYLKIGLVGEETAKAK [K108C] |
| increasing interaction | MAMHLNENLDDNGEMHDINVTPFIDVMLVLLIIFMVAAPLATVDVKVNLPASTSTPQPRPEKPVYLSVKADNSMFIGNDPVTDETMITALNALTEGKKDTTIFFRADKCVDYETLMKVMDTLHQAGYLKIGLVGEETAKAK [T109C] |

Variants of: B2
Conditions: with exbb_ecoli exbB

| effect of a mutation on the interaction | Variant |
| --- | --- |
| increasing interaction | MAMHLNENLDDNGEMHDINVTPFIDVMLVLLIIFMVAAPLATVDVKVNLPASTSTPQPRPEKPVYLSVKADNSMFIGNDPVTDETMITALNALTEGKKDTTIFFRADCTVDYETLMKVMDTLHQAGYLKIGLVGEETAKAK [K108C] |
| increasing interaction | MAMHLNENLDDNGEMHDINVTPFIDVMLVLLIIFMVAAPLATVDVKVNLPASTSTPQPRPEKPVYLSVKADNSMFIGNDPVTDETMITALNALTEGKKDTTIFFRADKTVDYCTLMKVMDTLHQAGYLKIGLVGEETAKAK [E113C] |
| increasing interaction | MAMHLNENLDDNGEMHDINVTPFIDVMLVLLIIFMVAAPLATVDVKVNLPASTSTPQPRPEKPVYLSVKADNSMFIGNDPVTDETMITALNALTEGKKDTTIFFRADKTVDYETLCKVMDTLHQAGYLKIGLVGEETAKAK [M116C] |
| increasing interaction | MAMHLNENLDDNGEMHDINVTPFIDVMLVLLIIFMVAAPLATVDVKVNLPASTSTPQPRPEKPVYLSVKADNSMFIGNDPVTDETMITALNALTEGKKDTTIFFRADKTVDCETLMKVMDTLHQAGYLKIGLVGEETAKAK [Y112C] |
| disrupting interaction | MAMHLNENLDDNGEMHDINVTPFINVMLVLLIIFMVAAPLATVDVKVNLPASTSTPQPRPEKPVYLSVKADNSMFIGNDPVTDETMITALNALTEGKKDTTIFFRADKTVDYETLMKVMDTLHQAGYLKIGLVGEETAKAK [D25N] |
